In article PMC6444176 (Biochemistry and Biophysics Reports, 2019):

Molecular target: the molecule itself
Assay: SEC

B1: His-MBP-VWA (hCLCA1 von Willebrand factor type A domain construct, amino acids 240-544) (domain or fragment, human, UniProt A8K7I4 240-544, looked up)
chain: AQHVDSIVEFCTEQNHNKEAPNKQNQKCNLRSTWEVIRDSEDFKKTTPMTTQPPNPTFSLLQIGQRIVCLVLDKSGSMATGNRLNRLNQAGQLFLLQTVELGSWVGMVTFDSAAHVQNELIQINSGSDRDTLAKRLPAAASGGTSICSGLRSAFTVIRKKYPTDGSEIVLLTDGEDNTISGCFNEVKQSGAIIHTVALGPSAAQELEELSKMTGGLQTYASDQVQNNGLIDAFGALSSGNGAVSQRSIQLESKGLTLQNSQWMNGTVIVDSTVGKDTLFLITWTMQPPQILLWDPSGQKQGGFVV
With B1 as the protein, how does the “stoichiometry N” value read?
The value was 2.
